Measured values as given in publication PMC11559003.

What was measured:
[1] = tested on: CRP (cAMP receptor protein) (Escherichia coli); assay: BLI; details: EMSA: 10 nM probe, 1x Beyotime EMSA/Gel-Shift Binding Buffer, 25 C 30 min, 6% PAGE at 4 C in 0.5x TBE + 200 uM cAMP, BLI: 10 mM HEPES, 2 mM MgCl2, 0.1 mM EDTA …
[2] = target: T1, CRP (cAMP receptor protein) (Escherichia coli) (UniProt P0ACJ8); assay: EMSA; details: EMSA: 10 nM probe, 1x Beyotime EMSA/Gel-Shift Binding Buffer, 25 C 30 min, 6% PAGE at 4 C in 0.5x TBE + 200 uM cAMP; BLI: 10 mM HEPES, 2 mM MgCl2, 0.1 mM EDTA …
T1 sequence: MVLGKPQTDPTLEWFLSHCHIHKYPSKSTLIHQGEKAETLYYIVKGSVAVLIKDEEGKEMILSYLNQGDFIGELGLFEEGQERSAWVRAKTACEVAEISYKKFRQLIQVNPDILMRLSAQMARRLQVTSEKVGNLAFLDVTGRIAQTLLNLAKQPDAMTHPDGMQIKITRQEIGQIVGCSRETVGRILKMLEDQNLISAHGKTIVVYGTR

Substance	Kd ([1]; cAMP + (p)ppGpp) [µM]	Kd ([1]; cAMP, no (p)ppGpp) [µM]	binding [2]
relA promoter probe	110	13	–
AGCCAGTGGCGATAAGCGGAGTCTGCGAGGACGCTTCCTGAAAATCGTCTTTATTGCAGTGAATGACAGGCAAATGCGGAAGCAGCTACGCAAAACGCAACAACTTTGCGCAAAAAGTGTGAGCAAGGGCTACGTCACATGGCCGCGCCGTGTATAATAAGCTCGTATGTAGGCTTTATTTCGCTAATCACATACGAAAGATACTCATGGCTCAAGGCACGCCTTATCGCCACTGGCT (double strand) [spoT promoter probe]	–	–	binds
